The results in this text go back to the nanobody polyreactivity screen of Harvey et al. (2022).

The series is described as follows: yeast display, Sf9 membrane polyspecificity reagent, FACS + sequencing; frameworks hold sequencing errors. Summed up:
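Nanobodies from a synthetic yeast display library (Saccharomyces cerevisiae BJ5465), induced 36–48 hours with galactose, were stained 1 hour at 4 °C with 10% biotinylated, detergent-solubilized Sf9 membrane reagent, enriched on streptavidin microbeads, then FACS-sorted. Anti-HA (expression) and streptavidin (reagent binding) fluorescence set low and high (top ~1%) gates. Polyreactivity labels come from the gate of origin. Genes were colony-PCR amplified, MiSeq 2 × 250 sequenced and filtered by CDR length.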
Take “QVQLVESGGGLVQAGGSLRLSCAASGITFDTYVMGWYRQAPGKERELVAAISNSDGSTYYADSVKGRFTISRDNAKNTVYLQMNSLKPEDTAVYYCNAQSYYYWHLRYDYWGQGTQVTVSS”: the “polyreactivity (PSR sort gate)” value is “high polyreactivity”. The value for “QLQLVQSGGGLVQAGGSLRLSCASSGRTFTPNARGWYSQAPGKEREMVAAISWRGGSTYYADAVMGRFTISRVNGKYTVYLEMKSLKPEDTGVYYCKKRSDKSYTRTEYDNWRQGTQVTVSS” was “high polyreactivity”; that for “QVQLVESGGGLVQAGGSLRLSCAASGSTCFHYSMGWYRQAPGKERELVAAITGTGRTTYADSVKGRFTISRDNAKTTVYLQMNSLKPEDTAVYYCAADVNYYQHRLYYWGQGTQVTVSS” was “low polyreactivity”; that for “QLQLVESGGGLVQAGGSLRLSCAASGSIFQYNAMGLYRQAPGKRELVAALNRSGGSTYYGDSVKGRFTISRDNAKNTVDLQMNSLKPEDTAVYYCAAGVFYFLKYTVSFINYYWRQGTQVTVSS” was “high polyreactivity”.

Regarding “QVQLVESGGGLVQAGGSLRLSCAASGFTFNGYAMGWYRQAPGKERELVAAINWSGGRTYYADSVKGRFTISRDNAKNTVYLQMNSLKPEDTAVYYCNAVLYVTNSFRFDYWGQGTQVTVSS”, the “polyreactivity (PSR sort gate)” value was “high polyreactivity”. With “QVQLVESGGGLVQAGGSLRLSCAASGSIFEIYAMGWYRQAPGKERELVAAISWSGGRTYYADSVKGRFTISRDNAKNTVYLQMNSLKPEDTAVYYCNAGQWRYPGLYYYWGQGTEVTVSS”, the “polyreactivity (PSR sort gate)” value is recorded as “high polyreactivity”. The value for “QVQLVESGGGLVQEGGSLRISCAASGFSYENNAMGRYRQAPGKERERVAGITSGGGSTYYADSVKGRFTISRDNAKNTVYLQMNSLKPEDTAVYYCNKMYTRVGFTFEYWGQGTQVTVSS” was “low polyreactivity”; that for “QVQLVESGGGLVQAGGSLRLSCAASGRILYQYAMAWYRQAPGKERELVASISGRSGRTRYADSVKGRFTISRDNAKNTVYLQMNSLKPEDTAVYYCNAGSSVLKYDYWGQGTQVTVSS” was “low polyreactivity”. Next, “QVRLVESGGGLVQAGGSLRLSCAASGRIFQYYSMGWYRQAPGKERELVASITSGGGSTYYADSVKGRFTISRDNAKNTVYLQMNSLKPEDTAVYYCNARWYGLSTRYDYWGQGTQVTVSS”: “low polyreactivity”; “QVQLLESGGGLVQAGGSLRLSCAASGIIFRVYAMGWYRQAPGKERELVATITWSGGSTFYADSVKGRFTISRDNAKNTVYLQMNSLKPEDTAVYYCAKRGYVRSGLGRPYADDYWGQGTQVTVSS”: “low polyreactivity”; “QVQLVESGGGLVQAGGSLRLSCAASGSICSSYAMGWYRQAPGKERELVAAISGSGGSTFYADSVKGRFTISRDNAKNTVYLQMNSLKPEDTAVYYCAARYYWYGRAGKKHASYYYWGQGTQVTVSS”: “high polyreactivity”. Next, “QVQLVESGGGLVQAGGSLRLSCAASGFTFRAYTMGWYRQAPGKERELVAAITYSGGPTYYADSVKGRFTISRDNAKNTVYLQMNSLKPEDTAVYYCAKRGWALSEYYYWGQGTQVTVSS”: “high polyreactivity”. “QVQLVESGGGLVQAGGSLRLSCAASGSTFVPNAMGWYRQAPGKERELVATINYADSVKGRFTISRDNAKNTVYLQMNSLKPEDTAVYYCATETAVYLVWGTALDYWGQGTQVTVSS”: the “polyreactivity (PSR sort gate)” value is “low polyreactivity”. Turning to “QVQLVESGGGLVQAGGSLRLSCAASGSTFRWYAMGWYRQAPGKERELVAAISWSGSTTYYADSVKGRFTISRDNAKNTVYLQMNSLKPEDTAVYYCAAEVVFFGWNYDYWGQGTQVTVSS”, the “polyreactivity (PSR sort gate)” value is on record as “high polyreactivity”.

Consider “QVQLVESGGGLVQAGGSLRFSCAASGFTLQQYTMGWYRQAPGKERELVAAISTSGVRTYYADSVKGRFTISRDNAKNTVYLQMNSLKPEDTAVYYCNAAWVYGIGWYSGYDYWGQGTQVTVSS”, for which the “polyreactivity (PSR sort gate)” value is reported as “high polyreactivity”.

Regarding “QVQLVESGAGLVQAGGSLRISCAASGIIFTYYPMGWYRQAPGKERELVASISSSGTSTYYADSVKGRFTISRDNAKNTVYLQLNSLKPEDTAVYYCAKSYWGDNSGFPGTPYDYWGQGTQVTVSS”, the “polyreactivity (PSR sort gate)” value was “low polyreactivity”. Next, “QVQLVESGGGLVQAGGSLRLSCAASGSTFGYYAMGWYRQAPGKERELVAAITYSGGGTYYADSVKGRFTISRDNAKNTVYLQMNSLKPEDTAVYYCAATIPYSLYGYDYWGQGTQVTVSS”: “low polyreactivity”; “QVQLVESGGGLVQAGGSLRLSCAASGSTLRWNTMGWYRQAPGKERQLVARISKSGGSTSYADSVKGRLTISRDNAKNTVYLQMNSLKPEDTAVYYCAKTPSQGYVFSYRWGDYWGQGTQVTVSS”: “high polyreactivity”; “QVQLVESGGGLVQAGGSLRLSCASSGGTLFQNAMGWYRQAPGKESELVATIRVSGGITYYADSVKGRFTISRDNAKNTVYFQMNSLNPEDTAVYYCAKDSADSRAVGDVMTFDYWGQGTQVTVSS”: “low polyreactivity”.

On to “QVQLVESGGGLVQAGGSLRLSCAASGFTFSSYDMGWYRQAPGKDRDLVAAIDFIDGSTYYADSVKGRFTISRDNAKKTVYLQKNSLKPEDTAVYYCAADPVFKVELWPVRVRVDYWGQGTQVTVSS”, for which the “polyreactivity (PSR sort gate)” value was “low polyreactivity”.

With “QVQLVESGGGLVQAGGSLRLSCAASGSIFHPYTMGWYRQAPGKERELVAAISWSGGNTNYADSVKGRFTISRDNAKNTVYLQMNSLKPEDTAVYYCNKATNLSGGYDSWGQGTQVTVSS”, the “polyreactivity (PSR sort gate)” value is reported as “low polyreactivity”. The value for “QLQLEDSGGGLVQAGGSLRISCAASARIVGGNTMGWYRQAPGKERELVAAITYRGGSTYYADSVKGRFTISRDNAKYTVYLQINSLKPVATAVYYCATAGYWGGDYWGQGTQVTVSS” was “low polyreactivity”; that for “QVQLVESGGGLVQAGGSLRLSCAASGRTSRRNAMGWYRQAPGKERELVAAISGSGGRTNSADSVKGRFTISRDNAQNTVYLQMNSLKPEDTAVYYCNVLTRYYLGYDYWGQGTQVTVSS” was “high polyreactivity”; that for “QVQLVESGGGLVQAGGSLRLSCAASGYIFGGYAMGWNRQAHGKERELVAGISIGVGSTYYADSVKGRFTISRDKAKNTVNLQMNSLKPEDTAVYYCNRDSVGYDYWGQGTQVTVSS” was “low polyreactivity”. Next, “QVQLVESGGGLVQAGGSLRLSCAASGITFFSYAMGWYREAPGKERELVAAISRRTGSTYYADSVKGRFTISRDNGMNTVFLQMMSLKPEDTAVYYCAARLPGTRYPYDYWGQGTQVTVSS”: “high polyreactivity”; “QVQRVESGGGLVQAGGSLRLSCAASGSIFFRNVMGWYRQAPGKERELVAAISSRGGSTYYADSVKGRFTISRDIAKNTVYLQMNSLKPEDTAVYYCATSHTPTYNYWGQGPQVTVSS”: “high polyreactivity”.

As for “QVQLVESGGGLVQAGGSLRLSCAASGFIFYSYAMGWYRQAPGKERELVAAISWSGGRTYYADSVKGRFTISRDNAKNTVYLQMNSLKPEDTAVYYCNADDYSFSFTVPYYIEYVYWGQGTQVTVSS”, the “polyreactivity (PSR sort gate)” value was “high polyreactivity”.

On to “QVHLVESGGGLVQAGGSLRLSCAASGFIFLPYAMGSYRQAPGKERELVAAITRGGRTYYADSVKGRFTISRDNAKNTVYLQMNSLKPEDTAVYYCAAVVWAPFYEFYYWGQGTQVTVSS”, for which the “polyreactivity (PSR sort gate)” value is reported as “low polyreactivity”.

“QVQLVESGGGLVQAGGSLRLSCAASGSTFTYYAMGWYRQAPGKEREFVATITYSGGSTYYADSVKGRFTISRDNAKNTVYLQMNSLKPEDTAVYYCAARVGRPSLVAAKYDYWGQGTQVTVSS”: the “polyreactivity (PSR sort gate)” value is on record as “high polyreactivity”.

In the case of “QVQLVESGGGLVQAGGILRLSCAASGRTFMYYAMGWYRQAPGKDMELVAAIRRGSSTYYADSVKGRFTISRDNAKYSVYLQMNSLKPEDTAVYYCAARGRYRIGQGRYGKRYDYWGHGTQVTVSS”, the “polyreactivity (PSR sort gate)” value is “high polyreactivity”.

“QVQLVESGGGLVQAGGSLRLSCAASGNTFRDYAMGWYRQAPGKERELVAAITSSGARTYYADSVKGRFTISRDNAKNTVYLQMNSLKPEDTAVYYCAADWSGYYTYDYWGQGTQVTVSS”: the “polyreactivity (PSR sort gate)” value is “low polyreactivity”. Next, “QVQLVESGGGLVQAGGSLRLSCAASGRTFGVYAMGWYRQAPGKERELVAAITWSGGSTYYADSVKGRFTISRDNAKNTVYLQMNSLKPEDTAVYYCAADNWYKKQKRPSAYDYWGQGTQVTVSS”: “high polyreactivity”. The value for “QVQLVESGGGLVQAGGSLRLSCAASGSTFRGNAMGWYRQAPGKERELVASITGGGSTNYADSVKGRFTISRDNAKNTVYLQMNSLKPEDTAVYYCAADWGADFYGGQGTQVTVSS” was “low polyreactivity”; that for “QVQLVESGGGLVQAGGSLRLSCAASGSIFLGYTMGWYRPAPGKERELVAAISTRGGSTYYADSVKGRFTISRDNAKNTVYLQMNSLKPEDTAVYYCKARSRGRASGYDYWGQGTQVTVSS” was “high polyreactivity”; that for “QVQLVESGGGLVQAGGSLRLSCAASGRIYWNTKGWYRQAPGKERELVASISTGGGRTYYADSVKGRFTISRDNAKNTVYLQMNSLKPEDTAVYYCAARRGAGYSRFNYWGQGTQVTVSS” was “high polyreactivity”. For the sequence “QVQLVESGGGLVQAGGSLRLSCAASGSIFYGYAMGWYRQAPGKERELVAVITDGGGSTYYADSVKGRFTISRDNAKNTVYLQMNSLKPEDTAVYYCAADSWGPYYYSSYSYDYWGQGTQVTVSS”, the “polyreactivity (PSR sort gate)” value was “low polyreactivity”. Next, “QVQLVESGGGLVQAGGSLRLSCAASGRTFRRYAMGWYRQAPGKERELVAAITGAGSTYYADSVKGRFTISRDNAKNTVYFQMNSLKPEDTAVYYCAATPDPPHSYEYWGQGTKVTVSS”: “low polyreactivity”; “QVQLVESGGGLVQAGGSLRLSCAASGNTFSDYSMGWYRQAPGNERELVAAITISGGSTYYADSVKGRFTISRDNAKNTVYLQMNSLKPEDTAVYYCAADVWYILYDYWGQGTQVTVSS”: “low polyreactivity”. With “QVQLVESGGGLVQAGGSLRLSCAASGRTFFKYAMGWYRQAPGKERELVAAISSVGSTYYADSVKGRFTISRDNAKNSVYLQMNSLKPEDTAVYYCAARKNRAYGYWGQGTQVTVSS”, the “polyreactivity (PSR sort gate)” value is recorded as “high polyreactivity”. For “QVQLVESGGGLVQAGGILRLSCAASGRTFDSNAMGWYRQAPGKERELVAAISWSGGSTYYADSVKGRFTISRDNAKNTVYLQMNSLKPEDTAVYYCNRLGRHAPATRYGYWGQGTQVTVSS”, the “polyreactivity (PSR sort gate)” value is “high polyreactivity”.

“QVQLVESGGGLVQAGGSLRLSCAASGSTVYHYAMGWNRQAPGKERELVAAISFSGGRTSYADSVKGRFTISRDNAKNTVDLQMNSLKPEDTAGYYCAAKYIRFARSRDYWGHGTQVTVSS”: the “polyreactivity (PSR sort gate)” value was “high polyreactivity”.
